Measured values as given in the supplement of paper PMC10567573.

B1: USP39 (parent)
chain: TLSEAYIQIWKRRDNDETNQQGA

Variants of: B1
Assay: protein stability index of a GFP-peptide fusion (GPS, HEK-293T) (PSI 1-6); higher = more stable
Conditions: c terminus: native
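Also: lentivirally expressed fusions sorted by FACS into six bins by GFP to DsRed ratio, PSI derived from sequencing read proportions per bin multiplied by bin number.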

Row | Variant | protein stability index
1 | TLSEAYIQIWKRRQNDETNQQGA | 2.12
2 | TLSEAYIQIWKRRWNDETNQQGA | 1.94
3 | TLSEAYIQIWKRRFNDETNQQGA | 2
4 | TLSEAYIQIWKRRINDETNQQGA | 2.6
5 | TLSEAYIQIWKRRTNDETNQQGA | 2.39
6 | TLSEAYIQIWKRRGNDETNQQGA | 2.06
7 | TLSEAYIQIWKRRCNDETNQQGA | 2.08
8 | TLSEAYIQIWKRRRNDETNQQGA | 2.74
9 | TLSEAYIQIWKRRPNDETNQQGA | 2.37
10 | TLSEAYIQIWKRRKNDETNQQGA | 2.67
11 | TLSEAYIQIWKRRLNDETNQQGA | 1.94
12 | TLSEAYIQIWKRRENDETNQQGA | 2.07
13 | TLSEAYIQIWKRRYNDETNQQGA | 1.9
14 | TLSEAYIQIWKRRMNDETNQQGA | 2.01
15 | TLSEAYIQIWKRRSNDETNQQGA | 1.94
16 | TLSEAYIQIWKRRANDETNQQGA | 2.1
17 | TLSEAYIQIWKRRHNDETNQQGA | 2.19
18 | TLSEAYIQIWKRRNNDETNQQGA | 1.71
19 | TLSEAYIQIWKRYDNDETNQQGA | 1.56
20 | TLSEAYIQIWKRQDNDETNQQGA | 4.3
21 | TLSEAYIQIWKRNDNDETNQQGA | 2.37
22 | TLSEAYIQIWKRVDNDETNQQGA | 1.97
23 | TLSEAYIQIWKRSDNDETNQQGA | 2.07
24 | TLSEAYIQIWKRPDNDETNQQGA | 2.46
25 | TLSEAYIQIWKRTDNDETNQQGA | 2.36

Row | Variant | protein stability index
26 | TLSEAYIQIWKRRDNHETNQQGA | 1.63
27 | TLSEAYIQIWKRRDNNETNQQGA | 2.67
28 | TLSEAYIQIWKRRDNYETNQQGA | 2.9
29 | TLSEAYIQIWKRRDNQETNQQGA | 2.22
30 | TLSEAYIQIWKRRDNWETNQQGA | 3.13
31 | TLSEAYIQIWKRRDNEETNQQGA | 2.14
32 | TLSEAYIQIWKRRDNRETNQQGA | 1.66
33 | TLSEAYIQIWKRRDNFETNQQGA | 1.51
34 | TLSEAYIQIWKRRDNCETNQQGA | 2.54
35 | TLSEAYIQIWKRRDNMETNQQGA | 2.93
36 | TLSEAYIQIWKRRDNKETNQQGA | 2.32
37 | TLSEAYIQIWKRRDNAETNQQGA | 2.1
38 | TLSEAYIQIWKRRDNLETNQQGA | 2.61
39 | TLSEAYIQIWKRRDNSETNQQGA | 2.22
40 | TLSEAYIQIWKRRDNTETNQQGA | 1.98
41 | TLSEAYIQIWKRRDNPETNQQGA | 1.29
42 | TLSEAYIQIWKRRDNGETNQQGA | 1.65
43 | TLSEAYIQIWKRRDNIETNQQGA | 1.95
44 | TLSEAYIQIWKRRDNDETNQQGK | 4.54
45 | TLSEAYIQIWKRRDNDETNQQGD | 4.15
46 | TLSEAYIQIWKRRDNDETNQQGI | 3.76
47 | TLSEAYIQIWKRRDNDETNQQGN | 4.51
48 | TLSEAYIQIWKRRDNDETNQQGT | 3.73
49 | TLSEAYIQIWKRRDNDETNQQGC | 3.53
50 | TLSEAYIQIWKRRDNDETNQQGR | 2.59

Row | Variant | protein stability index
51 | TLSEAYIQIWKRRDNDETNQQGL | 3.89
52 | TLSEAYIQIWKRRDNDETNQQGV | 4.23
53 | TLSEAYIQIWKRRDNDETNQQGY | 3.58
54 | TLSEAYIQIWKRRDNDETNQQGH | 4.18
55 | TLSEAYIQIWKRRDNDETNQQGE | 4.22
56 | TLSEAYIQIWKRRDNDETNQQGW | 2.94
57 | TLSEAYIQIWKRRDNDETNQQGS | 3.94
58 | TLSEAYIQIWKRRDNDETNQQGP | 4.07
59 | TLSEAYIQIWKRRDNDETNQQGQ | 4.5
60 | TLSEAYIQIWKRRDNDETNQQGF | 3.71
61 | TLSEAYIQIWKRRDNDETNQQGM | 4.35
62 | TLSEAYIQIWKRRDNDETNQEGA | 2.87
63 | TLSEAYIQIWKRRDNDETNQDGA | 2.74
64 | TLSEAYIQIWKRRDNDETNQPGA | 4.25
65 | TLSEAYIQIWKRRDNDETNQIGA | 2.66
66 | TLSEAYIQIWKRRDNDETNQHGA | 2.05
67 | TLSEAYIQIWKRRDNDETNQCGA | 1.76
68 | TLSEAYIQIWKRRDNDETNQVGA | 1.96
69 | TLSEAYIQIWKRRDNDETNQLGA | 2.09
70 | TLSEAYIQIWKRRDNDETNQTGA | 3.59
71 | TLSEAYIQIWKRRDNDETNQYGA | 2.43
72 | TLSEAYIQIWKRRDNDETNQWGA | 1.84
73 | TLSEAYIQIWKRRDNDETNQRGA | 1.53
74 | TLSEAYIQIWKRRDNDETNQNGA | 3.81
75 | TLSEAYIQIWKRRDNDETNQGGA | 2.52

Row | Variant | protein stability index
76 | TLSEAYIQIWKRRDNDETNQMGA | 1.8
77 | TLSEAYIQIWKRRDNDETNQSGA | 2.96
78 | TLSEAYIQIWKRRDNDETNQFGA | 1.79
79 | TLSEAYIQIWKRRDNDETNQKGA | 3.59
80 | TLSEAYIQIWKRRDNDETNQAGA | 2.96
81 | TLSEAYIQIWKRRDNDHTNQQGA | 1.6
82 | TLSEAYIQIWKRRDNDRTNQQGA | 1.63
83 | TLSEAYIQIWKRRDNDTTNQQGA | 1.9
84 | TLSEAYIQIWKRRDNDKTNQQGA | 1.72
85 | TLSEAYIQIWKRRDNDYTNQQGA | 1.87
86 | TLSEAYIQIWKRRDNDITNQQGA | 1.93
87 | TLSEAYIQIWKRRDNDATNQQGA | 1.8
88 | TLSEAYIQIWKRRDNDPTNQQGA | 2.4
89 | TLSEAYIQIWKRRDNDLTNQQGA | 1.71
90 | TLSEAYIQIWKRRDNDDTNQQGA | 2.79
91 | TLSEAYIQIWKRRDNDFTNQQGA | 1.99
92 | TLSEAYIQIWKRRDNDVTNQQGA | 1.5
93 | TLSEAYIQIWKRRDNDGTNQQGA | 2.66
94 | TLSEAYIQIWKRRDNDQTNQQGA | 1.55
95 | TLSEAYIQIWKRRDNDNTNQQGA | 1.77
96 | TLSEAYIQIWKRRDNDWTNQQGA | 2.35
97 | TLSEAYIQIWKRRDNDCTNQQGA | 2.33
